Data as given in article PMC12104855.

T1: biotin-conjugated KIFC1 (residues 1-50)
T1 sequence (peptide, biotin on the N-terminus): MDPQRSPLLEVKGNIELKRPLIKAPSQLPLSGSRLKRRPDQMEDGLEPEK


Target: T1, biotin-conjugated KIFC1 (residues 1-50)
Experiment: BLI

| Binder | Kd | koff | kon |
| --- | --- | --- | --- |
| 6CD1-IMGT IgG (antibody, V domains shown) VH: EVQLQQSGAELVKPGASVKLSCTASGFNIKDTYIHWVKQRPEQGLEWIGRIDPANGNTKYDPKFQGKATITADTSSNTAYLQLSSLTSEDTAVYYCARGYGSRSAMDYWGQGTSVTVS VL: DIVLTQSPASLAVSLGQRATISCRASQSLFNSRTRKNYMLWYQQKPGQPPKLLIYLASNLESGVPARFSGSGSGTDFTLNIHPVEEEDAATYYCQHSRELPWTFGGGTKLEIK | 9.31 nM | 0.000682 s⁻¹ | 73100 M⁻¹ s⁻¹ |
| 6C407 IgG (antibody, V domains shown) VH: EVQLQQSGAELVKPGASVKLSCTASGFNIKDTYIHWVKQRPEQGLEWIGRIDPANGNTKYDPKFQGKATITADTSSNTAYLQLSSLTSEDTAVYYCARGYGSRSAMDYWGQGTSVTVS VL: DIVLTQSPASLAVSLGQRATISCRASKSVSTSGYSYMLWYQQKPGQPPKLLIYLASNLESGVPARFSGSGSGTDFTLNIHPVEEEDAATYYCQHSRELPWTFGGGTKLEIK | 10.6 nM |  |  |
